The target in experiment [1] is KPNB1. Description: BLI; APS probe with immobilised KPNB1 (10 μg/ml, to saturation), N protein in solution (gradient 0.61–2.07 μM or 4.17–8.89 μM); 30°C, PBS + 0.2% BSA; 1:1 binding model; ForteBio Octet.
Experiment [2] concerns the target HP-PRRSV N protein (porcine reproductive and respiratory syndrome virus (HP-PRRSV)). Description: BLI; SA probe with immobilised N protein (10 μg/ml, immobilization height 2.2 nm), KPNA1 in solution (gradient 1.47–4.97 μM or 0.87–9.95 μM); 30°C, PBS + 0.2% BSA; 1:1 binding model; ForteBio Octet. On the technique in general: In BLI a coated tip is dipped into the sample, and binding shifts an interference pattern.

In experiment [3] the target is classic PRRSV N protein (porcine reproductive and respiratory syndrome virus (classic PRRSV)). Described as above.

Broadly, the Kd is the free concentration of one partner at which half of the binding sites on the other are occupied at equilibrium, for simple one-to-one binding. Broadly, the koff is the rate constant with which the complex falls apart. In general, kon refers to the rate constant with which the complex forms. As for HP-PRRSV N protein (natural protein), in experiment [1], the Kd was found to be 2130 nM, the koff came to 0.00737 s⁻¹ and the kon is 3450 M⁻¹ s⁻¹.
The like results for “classic PRRSV N protein (natural protein)” were, in that order, 293 nM, 0.00179 s⁻¹ and 6110 M⁻¹ s⁻¹.
In the case of KPNA1 (receptor), in experiment [2], the Kd came out at 910 nM, the off-rate (koff) came to 0.000446 s⁻¹ and the kon was 490 M⁻¹ s⁻¹. Moreover, in experiment [3], the Kd worked out at 304 nM, the koff turned out to be 0.000619 s⁻¹ and the kon was found to be 2030 M⁻¹ s⁻¹.

The values are drawn from publication PMC12271210.
